Measured values taken from paper PMC7591920, “A protein tertiary structure mimetic modulator of the Hippo signalling pathway” (Nature Communications, 2020).

Legend:
[1] = biological target: GST-hTEAD1(209–426) (human) (UniProt P28347); experiment: not stated; values of Supplementary Table 1; the method is not given
[2] = biological target: mouse TEAD4(210–427), as purified (SPR) (mouse) (UniProt Q62296); experiment: as above
Chain of mouse TEAD4(210–427), as purified (SPR) (mouse) (Q62296 210-427): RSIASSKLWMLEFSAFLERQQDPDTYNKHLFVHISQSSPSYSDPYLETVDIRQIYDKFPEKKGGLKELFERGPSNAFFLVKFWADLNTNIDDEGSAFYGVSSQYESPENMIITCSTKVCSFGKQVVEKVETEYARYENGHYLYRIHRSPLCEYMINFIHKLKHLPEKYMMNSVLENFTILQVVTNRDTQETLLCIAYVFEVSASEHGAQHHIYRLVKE

Kd [1]: 17 µM | Kd [2]: 12 µM
Substance: VGL4 two-helix motif peptide with K250 varied to alanine (from UniProt Q80V24 203-256)
